Data: US20210228629A1

What was measured:
[1] = biological target: BCMA expressed on K562 Very High-BCMA cells (UniProt Q02223); assay: cell-based or functional assay
BCMA protein = BCMA protein (UniProt Q02223); assay: cell-based or functional assay

B1: anti-BCMA CAR (co-stimulatory domain not specified for the experiment) (protein, part only; not given: CAR hinge, transmembrane, signaling domains, part only)
chain, part: DIVLTQSPPSLAMSLGKRATISCRASESVTILGSHLIHWYQQKPGQPPTLLIQLASNVQTGVPARFSGSGSRTDFTLTIDPVEEDDVAVYYCLQSRTIPRTFGGGTKLEIKGSTSGSGKPGSGEGSTKGQIQLVQSGPELKKPGETVKISCKASGYTFTDYSINWVKRAPGKGLKWMGWINTETREPAYAYDFRGRFAFSLETSASTAYLQINNLKYEDTATYFCALDYSYAMDYWGQGTSVTVSS
- CD107a+ cells (%), degranulation after 18 hours [1]: 3.82%
- CD107a+ cells (%), degranulation after 18 hours (BCMA protein): 22.2%
